Data published in PMC7791067, “PLPP/CIN-mediated NF2-serine 10 dephosphorylation regulates F-actin stability and Mdm2 degradation in an activity-dependent manner” (Cell Death & Disease, 2021).

Biological target: T1, full-length recombinant human NF2, phosphorylated by PKAc (human, UniProt P35240 1-595, phosphoserine at S10 and S518 (phosphorylated by PKAc in vitro))
T1 sequence (looked up): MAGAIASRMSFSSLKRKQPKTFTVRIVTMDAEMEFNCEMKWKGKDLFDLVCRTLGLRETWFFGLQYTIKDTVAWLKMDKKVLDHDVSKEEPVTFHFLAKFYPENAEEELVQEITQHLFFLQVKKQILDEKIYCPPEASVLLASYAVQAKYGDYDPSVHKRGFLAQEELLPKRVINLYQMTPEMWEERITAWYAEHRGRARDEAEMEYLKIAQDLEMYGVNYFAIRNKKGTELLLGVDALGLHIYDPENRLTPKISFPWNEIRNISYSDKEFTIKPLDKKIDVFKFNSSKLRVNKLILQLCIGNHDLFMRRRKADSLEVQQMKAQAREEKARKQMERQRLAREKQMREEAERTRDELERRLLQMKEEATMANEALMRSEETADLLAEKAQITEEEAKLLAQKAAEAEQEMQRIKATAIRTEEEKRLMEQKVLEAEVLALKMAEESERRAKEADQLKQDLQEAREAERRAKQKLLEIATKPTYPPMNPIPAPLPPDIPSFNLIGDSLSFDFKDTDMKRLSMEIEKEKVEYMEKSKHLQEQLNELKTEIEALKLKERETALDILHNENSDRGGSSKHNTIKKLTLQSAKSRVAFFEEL
Assay: cell-based or functional assay

- NF2-S10 phosphorylation (western blot) in the in vitro phosphatase assay with recombinant proteins, after PKAc: ~0.63 fold of vehicle level
B1: recombinant human PLPP/CIN (enzyme, UniProt Q96GD0 1-296, looked up)
chain: MARCERLRGAALRDVLGRAQGVLFDCDGVLWNGERAVPGAPELLERLARAGKAALFVSNNSRRARPELALRFARLGFGGLRAEQLFSSALCAARLLRQRLPGPPDAPGAVFVLGGEGLRAELRAAGLRLAGDPSAGDGAAPRVRAVLVGYDEHFSFAKLREACAHLRDPECLLVATDRDPWHPLSDGSRTPGTGSLAAAVETASGRQALVVGKPSPYMFECITENFSIDPARTLMVGDRLETDILFGHRCGMTTVLTLTGVSRLEEAQAYLAAGQHDLVPHYYVESIADLTEGLED
